T1: EsCas13d, nuclease-dead (Eubacterium siraeum, UniProt B0MS50, R295A;H300A;R849A;H854A)
T1 sequence: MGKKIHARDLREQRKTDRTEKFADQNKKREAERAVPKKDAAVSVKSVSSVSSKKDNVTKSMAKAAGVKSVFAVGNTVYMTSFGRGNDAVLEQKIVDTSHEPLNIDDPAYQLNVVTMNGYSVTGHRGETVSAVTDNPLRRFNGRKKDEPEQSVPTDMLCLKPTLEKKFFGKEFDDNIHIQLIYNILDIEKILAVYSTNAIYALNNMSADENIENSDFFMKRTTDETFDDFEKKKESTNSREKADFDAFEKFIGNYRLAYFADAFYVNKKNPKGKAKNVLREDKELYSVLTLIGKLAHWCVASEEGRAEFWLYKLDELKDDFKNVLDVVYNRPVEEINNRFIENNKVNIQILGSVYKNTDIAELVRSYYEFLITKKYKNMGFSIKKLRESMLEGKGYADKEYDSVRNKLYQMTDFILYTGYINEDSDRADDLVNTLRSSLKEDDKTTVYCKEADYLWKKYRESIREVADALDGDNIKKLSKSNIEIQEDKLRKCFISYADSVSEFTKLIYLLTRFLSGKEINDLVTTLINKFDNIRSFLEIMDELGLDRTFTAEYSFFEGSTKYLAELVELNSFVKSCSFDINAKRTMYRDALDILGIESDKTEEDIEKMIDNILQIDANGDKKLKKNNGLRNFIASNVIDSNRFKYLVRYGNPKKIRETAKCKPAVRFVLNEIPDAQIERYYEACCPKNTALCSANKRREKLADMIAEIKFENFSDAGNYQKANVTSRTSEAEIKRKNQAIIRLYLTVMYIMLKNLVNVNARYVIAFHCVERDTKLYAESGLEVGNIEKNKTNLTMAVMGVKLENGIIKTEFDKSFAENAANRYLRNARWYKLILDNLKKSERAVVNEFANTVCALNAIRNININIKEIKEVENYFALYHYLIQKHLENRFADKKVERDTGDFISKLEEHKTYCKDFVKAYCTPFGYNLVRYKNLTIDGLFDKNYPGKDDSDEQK

B1: target 1 insC 3' of 20,insU 3' of 15 (mixed)
RNA 1: CACCCGUGCAAAAAUGCAGGGGUCUAAAACUGAGCGGAUAACCUCUCUAUGG
RNA 2: GGGAAUGGAUCCACAUCUACGAAUUCGUACCACUAGAGUAGGUUAUCCGCUCACCGAGAUCGGAAGAGCACACGU
B2: target 1 insU 3' of 7,insG 3' of 2 (mixed)
RNA 1: CACCCGUGCAAAAAUGCAGGGGUCUAAAACUGAGCGGAUAACCUCUCUAUGG
RNA 2: GGGAAUGGAUCCACAUCUACGAAUUCGUACCAUAGAGAGGUUAUCUCGCUCGACCGAGAUCGGAAGAGCACACGU
B3: target 1 insC 3' of 17,insA 3' of 15 (mixed)
RNA 1: CACCCGUGCAAAAAUGCAGGGGUCUAAAACUGAGCGGAUAACCUCUCUAUGG
RNA 2: GGGAAUGGAUCCACAUCUACGAAUUCGUACCAUAGCAGAAGGUUAUCCGCUCACCGAGAUCGGAAGAGCACACGU
B4: target 1 complement block 4-9 (mixed)
RNA 1: CACCCGUGCAAAAAUGCAGGGGUCUAAAACUGAGCGGAUAACCUCUCUAUGG
RNA 2: GGGAAUGGAUCCACAUCUACGAAUUCGUACCAUAGAGAGGUUUAGGCGUCACCGAGAUCGGAAGAGCACACGU
B5: target 1 C4G,C7G (mixed)
RNA 1: CACCCGUGCAAAAAUGCAGGGGUCUAAAACUGAGCGGAUAACCUCUCUAUGG
RNA 2: GGGAAUGGAUCCACAUCUACGAAUUCGUACCAUAGAGAGGUUAUGCGGUCACCGAGAUCGGAAGAGCACACGU
B6: target 1 G5A,A9G (mixed)
RNA 1: CACCCGUGCAAAAAUGCAGGGGUCUAAAACUGAGCGGAUAACCUCUCUAUGG
RNA 2: GGGAAUGGAUCCACAUCUACGAAUUCGUACCAUAGAGAGGUUGUCCACUCACCGAGAUCGGAAGAGCACACGU
B7: target 1 A1G,U19G (mixed)
RNA 1: CACCCGUGCAAAAAUGCAGGGGUCUAAAACUGAGCGGAUAACCUCUCUAUGG
RNA 2: GGGAAUGGAUCCACAUCUACGAAUUCGUACCAGAGAGAGGUUAUCCGCUCGCCGAGAUCGGAAGAGCACACGU
B8: target 1 insC 3' of 12,insC 3' of 5 (mixed)
RNA 1: CACCCGUGCAAAAAUGCAGGGGUCUAAAACUGAGCGGAUAACCUCUCUAUGG
RNA 2: GGGAAUGGAUCCACAUCUACGAAUUCGUACCAUAGAGAGGCUUAUCCGCCUCACCGAGAUCGGAAGAGCACACGU
B9: target 1 insC 3' of 5 (mixed)
RNA 1: CACCCGUGCAAAAAUGCAGGGGUCUAAAACUGAGCGGAUAACCUCUCUAUGG
RNA 2: GGGAAUGGAUCCACAUCUACGAAUUCGUACCAUAGAGAGGUUAUCCGCCUCACCGAGAUCGGAAGAGCACACGU
B10: target 1 insU 3' of 12,insC 3' of 8 (mixed)
RNA 1: CACCCGUGCAAAAAUGCAGGGGUCUAAAACUGAGCGGAUAACCUCUCUAUGG
RNA 2: GGGAAUGGAUCCACAUCUACGAAUUCGUACCAUAGAGAGGUUUAUCCCGCUCACCGAGAUCGGAAGAGCACACGU
B11: target 1 insC 3' of 15,insC 3' of 12 (mixed)
RNA 1: CACCCGUGCAAAAAUGCAGGGGUCUAAAACUGAGCGGAUAACCUCUCUAUGG
RNA 2: GGGAAUGGAUCCACAUCUACGAAUUCGUACCAUAGAGCAGGCUUAUCCGCUCACCGAGAUCGGAAGAGCACACGU
B12: target 1 C7G,A14U (mixed)
RNA 1: CACCCGUGCAAAAAUGCAGGGGUCUAAAACUGAGCGGAUAACCUCUCUAUGG
RNA 2: GGGAAUGGAUCCACAUCUACGAAUUCGUACCAUAGAGUGGUUAUGCGCUCACCGAGAUCGGAAGAGCACACGU
B13: target 1 insU 3' of 17,insG 3' of 14 (mixed)
RNA 1: CACCCGUGCAAAAAUGCAGGGGUCUAAAACUGAGCGGAUAACCUCUCUAUGG
RNA 2: GGGAAUGGAUCCACAUCUACGAAUUCGUACCAUAGUAGAGGGUUAUCCGCUCACCGAGAUCGGAAGAGCACACGU
B14: target 1 del9,del11 (mixed)
RNA 1: CACCCGUGCAAAAAUGCAGGGGUCUAAAACUGAGCGGAUAACCUCUCUAUGG
RNA 2: GGGAAUGGAUCCACAUCUACGAAUUCGUACCAUAGAGAGGUUCCGCUCACCGAGAUCGGAAGAGCACACGU
B15: target 1 del7 (mixed)
RNA 1: CACCCGUGCAAAAAUGCAGGGGUCUAAAACUGAGCGGAUAACCUCUCUAUGG
RNA 2: GGGAAUGGAUCCACAUCUACGAAUUCGUACCAUAGAGAGGUUAUCGCUCACCGAGAUCGGAAGAGCACACGU
B16: target 1 C4G,U8G (mixed)
RNA 1: CACCCGUGCAAAAAUGCAGGGGUCUAAAACUGAGCGGAUAACCUCUCUAUGG
RNA 2: GGGAAUGGAUCCACAUCUACGAAUUCGUACCAUAGAGAGGUUAGCCGGUCACCGAGAUCGGAAGAGCACACGU
B17: target 1 insU 3' of 4,insU 3' of 2 (mixed)
RNA 1: CACCCGUGCAAAAAUGCAGGGGUCUAAAACUGAGCGGAUAACCUCUCUAUGG
RNA 2: GGGAAUGGAUCCACAUCUACGAAUUCGUACCAUAGAGAGGUUAUCCGCUUCUACCGAGAUCGGAAGAGCACACGU
B18: target 1 insU 3' of 21,insU 3' of 9 (mixed)
RNA 1: CACCCGUGCAAAAAUGCAGGGGUCUAAAACUGAGCGGAUAACCUCUCUAUGG
RNA 2: GGGAAUGGAUCCACAUCUACGAAUUCGUACCUAUAGAGAGGUUAUUCCGCUCACCGAGAUCGGAAGAGCACACGU
B19: target 1 C4A,A20U (mixed)
RNA 1: CACCCGUGCAAAAAUGCAGGGGUCUAAAACUGAGCGGAUAACCUCUCUAUGG
RNA 2: GGGAAUGGAUCCACAUCUACGAAUUCGUACCUUAGAGAGGUUAUCCGAUCACCGAGAUCGGAAGAGCACACGU
B20: target 1 C7U,G17C (mixed)
RNA 1: CACCCGUGCAAAAAUGCAGGGGUCUAAAACUGAGCGGAUAACCUCUCUAUGG
RNA 2: GGGAAUGGAUCCACAUCUACGAAUUCGUACCAUACAGAGGUUAUUCGCUCACCGAGAUCGGAAGAGCACACGU
B21: target 1 insU 3' of 18,insG 3' of 4 (mixed)
RNA 1: CACCCGUGCAAAAAUGCAGGGGUCUAAAACUGAGCGGAUAACCUCUCUAUGG
RNA 2: GGGAAUGGAUCCACAUCUACGAAUUCGUACCAUAUGAGAGGUUAUCCGCGUCACCGAGAUCGGAAGAGCACACGU
B22: target 1 insU 3' of 21,insA 3' of 3 (mixed)
RNA 1: CACCCGUGCAAAAAUGCAGGGGUCUAAAACUGAGCGGAUAACCUCUCUAUGG
RNA 2: GGGAAUGGAUCCACAUCUACGAAUUCGUACCUAUAGAGAGGUUAUCCGCUACACCGAGAUCGGAAGAGCACACGU
B23: target 1 insC 3' of 16,insA 3' of 7 (mixed)
RNA 1: CACCCGUGCAAAAAUGCAGGGGUCUAAAACUGAGCGGAUAACCUCUCUAUGG
RNA 2: GGGAAUGGAUCCACAUCUACGAAUUCGUACCAUAGACGAGGUUAUCACGCUCACCGAGAUCGGAAGAGCACACGU
B24: target 1 insG 3' of 14,insA 3' of 6 (mixed)
RNA 1: CACCCGUGCAAAAAUGCAGGGGUCUAAAACUGAGCGGAUAACCUCUCUAUGG
RNA 2: GGGAAUGGAUCCACAUCUACGAAUUCGUACCAUAGAGAGGGUUAUCCAGCUCACCGAGAUCGGAAGAGCACACGU
B25: target 1 C2A,C7A (mixed)
RNA 1: CACCCGUGCAAAAAUGCAGGGGUCUAAAACUGAGCGGAUAACCUCUCUAUGG
RNA 2: GGGAAUGGAUCCACAUCUACGAAUUCGUACCAUAGAGAGGUUAUACGCUAACCGAGAUCGGAAGAGCACACGU
B26: target 1 insA 3' of 10,insC 3' of 8 (mixed)
RNA 1: CACCCGUGCAAAAAUGCAGGGGUCUAAAACUGAGCGGAUAACCUCUCUAUGG
RNA 2: GGGAAUGGAUCCACAUCUACGAAUUCGUACCAUAGAGAGGUUAAUCCCGCUCACCGAGAUCGGAAGAGCACACGU
B27: target 1 insA 3' of 19,insC 3' of 9 (mixed)
RNA 1: CACCCGUGCAAAAAUGCAGGGGUCUAAAACUGAGCGGAUAACCUCUCUAUGG
RNA 2: GGGAAUGGAUCCACAUCUACGAAUUCGUACCAUAAGAGAGGUUACUCCGCUCACCGAGAUCGGAAGAGCACACGU
B28: target 1 insA 3' of 17,insC 3' of 8 (mixed)
RNA 1: CACCCGUGCAAAAAUGCAGGGGUCUAAAACUGAGCGGAUAACCUCUCUAUGG
RNA 2: GGGAAUGGAUCCACAUCUACGAAUUCGUACCAUAGAAGAGGUUAUCCCGCUCACCGAGAUCGGAAGAGCACACGU

The binders below were run against T1, EsCas13d, nuclease-dead (assay: crRNA (strand 1, pre-loaded); Mg2+; 40 mM Tris-HCl pH 7.5, 150 mM NaCl, 6 mM MgCl2, 1 mM DTT, 0.1% Tween-20, 0.2 mg/ml BSA; 25 C; 10 min per concentration, then washed). Conditions: tags: His6-TwinStrep-SUMO cleaved; N-terminal SNAP kept (SNAP-Surface 488); label: 3' end held by stalled T7 RNA polymerase.
Binder B1 has a Kd of 10 ± 0.7 nM. B2 was tested, and the Kd was 15.3 ± 1.2 nM. B3 showed a Kd of 28 ± 4 nM. B4 was tested, and the Kd was 7.99 ± 0.28 nM. With B5 the Kd was 9.7 ± 0.5 nM. B6 showed a Kd of 19.3 ± 1.1 nM. Binder B7 has a Kd of 51 ± 6 nM. Binder B8 has a Kd of 13.4 ± 0.7 nM. Work on B9 yielded a Kd of 9.6 ± 0.7 nM. Work on B10 yielded a Kd of 19.5 ± 1 nM. Work on B11 yielded a Kd of 60 ± 13 nM. B12 gave a Kd of 66 ± 16 nM. Binder B13 has a Kd of 23 ± 5 nM. Binder B14 has a Kd of 13.2 ± 1 nM. For B15, the Kd was 8.01 ± 0.33 nM. Work on B16 yielded a Kd of 5.52 ± 0.21 nM. With B17 the Kd was 9.5 ± 0.4 nM. Work on B18 yielded a Kd of 37 ± 4 nM. For B19, the Kd was 21.1 ± 3.3 nM. Work on B20 yielded a Kd of 77 ± 35 nM. For B21, the Kd was 20 ± 1.2 nM. For B22, the Kd was 18.1 ± 0.9 nM. With B23 the Kd was 63 ± 15 nM. For B24, the Kd was 14.6 ± 1.3 nM. With B25 the Kd was 5.34 ± 0.16 nM. Binder B26 has a Kd of 15.4 ± 0.8 nM. In the case of B27, the Kd is reported as 55 ± 4 nM. For B28, the Kd was 18.6 ± 1.3 nM.

Source: paper PMC10786891, “Massively parallel profiling of RNA-targeting CRISPR-Cas13d”
